Changes are numbered by the printed parent chain.
B1: Humabody® 1.99 (VHH)
VHH: EVQLVESGGGLVKPGGSLRLSCAASGFTFSDRSMTWMRQAPGKGLEWVSYISSGGGVKFYADSVKGRFTISRDNAKNSLYLQMNSLRAEDTAVYYCAREAPLRLGESPHDAFDISGQGTMVTVSS
notes: human VH single domain antibody
B2: Humabody® 1.62 (VHH)
VHH: B1 VHH with E1Q, R32S, G56A, A61T, E89D
notes: as for B1
B3: Humabody® 1.65 (VHH)
VHH: B1 VHH with E1Q, R32S, E89D
notes: as for B1
B4: Humabody® 1.63 (VHH)
VHH: B1 VHH with R32S, A61T, E89D
notes: as for B1
B5: Humabody® 1.98 (VHH)
VHH: B1 VHH with R32K
notes: as for B1
B6: Humabody® 1.64 (VHH)
VHH: B1 VHH with R32S, E89D
notes: as for B1
B7: Humabody® 1.100 (VHH)
VHH: B1 VHH with R32L
notes: as for B1
B8: Humabody® 1.96 (VHH)
VHH: B1 VHH with R32T
notes: as for B1
B9: Humabody® 1.97 (VHH)
VHH: B1 VHH with R32I
notes: as for B1
B10: Humabody® 1.2 (VHH)
VHH: B1 VHH with V5L, R32Y, S33T, S53T, G56S, V57I, F59Y, A61T, E89D, S115W
notes: as for B1
B11: Humabody® 1.5 (VHH)
VHH: B1 VHH with R32Y, S33T, S53T, G56N, V57T, F59Y, A61T, E89D, S115W
notes: as for B1
B12: Humabody® 1.13 (VHH)
VHH: B1 VHH with V5L, R32Y, S33T, S53T, G56T, V57I, F59Y, A61T, E89D, S115W
notes: as for B1
B13: Humabody® 1.9 (VHH)
VHH: QVQLVESGGGLVKPGGSLRLSCAASGFTFGDYTMTWMRQAPGKGLEWVSYISTGGTIKYYTDSVKGRFTISRDNAKNSLYLQMDSLRADDTAVYYCAREAPLRLGESPHDAFDIWGQGTMVTVSS
notes: as for B1
B14: Humabody® 1.4 (VHH)
VHH: B13 VHH with G30S, T33Y, T35I, T53G, I57T, D84N, S107T
notes: as for B1
B15: 1.57-6GS-1.57 (other)
chain: QVQLVESGGGLVKPGGSLRLSCAASGFTFSDNSMTWMRQAPGKGLEWVSYISSGGGVIFYADSVKGRFTISRDNAKNSLYLQMNSLRADDTAVYYCAREAPLRLGESPHDAFDISGQGTMVTVSSGGGGSGGGGSGGGGSGGGGSGGGGSGGGGSQVQLVESGGGLVKPGGSLRLSCAASGFTFSDNSMTWMRQAPGKGLEWVSYISSGGGVIFYADSVKGRFTISRDNAKNSLYLQMNSLRADDTAVYYCAREAPLRLGESPHDAFDISGQGTMVTVSS
notes: bivalent construct of two VH domains in one chain
B16: 1.57-9GS-1.57 (other)
chain: QVQLVESGGGLVKPGGSLRLSCAASGFTFSDNSMTWMRQAPGKGLEWVSYISSGGGVIFYADSVKGRFTISRDNAKNSLYLQMNSLRADDTAVYYCAREAPLRLGESPHDAFDISGQGTMVTVSSGGGGSGGGGSGGGGSGGGGSGGGGSGGGGSGGGGSGGGGSGGGGSQVQLVESGGGLVKPGGSLRLSCAASGFTFSDNSMTWMRQAPGKGLEWVSYISSGGGVIFYADSVKGRFTISRDNAKNSLYLQMNSLRADDTAVYYCAREAPLRLGESPHDAFDISGQGTMVTVSS
notes: as for B15
B17: 1.57-1.57 (protein, part only; not given: Linker of unstated length, part only)
VH-linker-VH, part: QVQLVESGGGLVKPGGSLRLSCAASGFTFSDNSMTWMRQAPGKGLEWVSYISSGGGVIFYADSVKGRFTISRDNAKNSLYLQMNSLRADDTAVYYCAREAPLRLGESPHDAFDISGQGTMVTVSSQVQLVESGGGLVKPGGSLRLSCAASGFTFSDNSMTWMRQAPGKGLEWVSYISSGGGVIFYADSVKGRFTISRDNAKNSLYLQMNSLRADDTAVYYCAREAPLRLGESPHDAFDISGQGTMVTVSS

These binders were tested against T1, human PD-1 expressed on cells (CHO human PD-1 cells) (human, UniProt Q15116 21-288) (assay: cell-based or functional assay).
T1 sequence (Q15116 21-288): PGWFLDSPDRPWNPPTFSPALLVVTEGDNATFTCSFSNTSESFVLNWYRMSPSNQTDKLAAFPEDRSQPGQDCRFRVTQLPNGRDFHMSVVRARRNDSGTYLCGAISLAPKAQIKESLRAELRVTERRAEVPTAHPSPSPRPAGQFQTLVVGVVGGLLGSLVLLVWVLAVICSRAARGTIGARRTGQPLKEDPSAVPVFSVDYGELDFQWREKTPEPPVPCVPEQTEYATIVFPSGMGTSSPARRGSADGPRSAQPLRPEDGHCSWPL

| Binder | Reporter Assay EC50 |
| --- | --- |
| B1 | 4.2 nM |
| B2 | 14 nM |
| B3 | 11 nM |
| B4 | 12 nM |
| B5 | 6.5 nM |
| B6 | 25 nM |

Each binder was assayed against T1, human PD-1 expressed on cells (CHO …) (assay: FMAT inhibition; 100 pM PD-L1-Fc on CHO human PD-1 cells).
Method: (§1) All reagents and serially diluted VH were prepared in FMAT assay buffer. […] Plates were incubated for 2 hours at room temperature then fluorescence measured in the FL2 (502 nm-537 nm) and FL5 (677-800 nm) channels on the Mirrorball plate reader (TTP) following excitation at 488 nm and 640 nm. Data was expressed as a % of the total binding control (i.e. % control) after subtraction of the background signal determined from the non-specific binding control wells.

| Binder | IC50 |
| --- | --- |
| B1 | 1.86 nM |
| B7 | 2.61 nM |
| B2 | 5.7 nM |
| B8 | 2.45 nM |
| B3 | 5.8 nM |
| B4 | 4.5 nM |
| B5 | 2.08 nM |
| B9 | 3.32 nM |
| B6 | 5.8 nM |

The binders below were run against T2, recombinant human PD-1 Fc chimera (human, UniProt Q15116 25-167) (assay: HTRF inhibition; biotinylated PD-L2-Fc vs Eu-cryptate PD-1-Fc).
T2 construct: Bought protein; also called human PD-1-huFc; huPD-1-Fc; not shown: human Fc
T2 sequence (Q15116 25-167 limits assumed, change not shown): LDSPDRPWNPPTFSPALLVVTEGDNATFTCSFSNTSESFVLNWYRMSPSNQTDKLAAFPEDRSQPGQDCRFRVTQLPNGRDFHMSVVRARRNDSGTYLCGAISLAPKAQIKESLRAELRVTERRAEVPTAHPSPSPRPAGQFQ

| Binder | IC50 |
| --- | --- |
| B10 | 39 nM |
| B11 | 22 nM |
| B12 | 10 nM |
| B13 | 7.5 nM |
| B14 | 14 nM |

Each binder was assayed against human PD-1 on primary human CD4+ T cells (human, UniProt Q15116 21-288) (assay: flow cytometry on PHA-stimulated human CD4+ T cells (live cell gate)).
Method: Binding of monovalent single domain antibodies and multivalent binding agents to T cells was measured using flow cytometry. […] T-cells were stimulated with 2.5 μg/ml PHA for 2-4 days in RPMI media supplemented with 10% FBS, 2 mM Glutamine, 1× Pen/Strep. Cells were transferred into 96 well plates (75000 per well), blocked for 10 mins with PBS/1% BSA, then incubated with serially diluted VH in staining buffer (PBS/1% BSA) for 1 hour at 4° C. Cells were washed with staining buffer by centrifugation then incubated with 10 μg/ml biotinylated Anti His antibody for 40 mins at 4° C. Cells were washed again then stained with Streptavidin Alexa Fluor-488 (10 μg/ml) and 1:5000 diluted Live Dead near IR stain (Molecular Probes cat no. L10119) for 30 mins at 4° C. After further washing cells were fixed and fluorescence measured by flow cytometry.

Sequence of human PD-1 on primary human CD4+ T cells (Q15116 21-288): as the sequence (Q15116 21-288) above

| Binder | EC50 (read off the curve) |
| --- | --- |
| B10 | ~2 nM |
| B15 | ~0.2 nM |

The binders below were run against T1, human PD-1 expressed on cells (CHO …) (assay: FMAT 1.57 epitope competition assay on CHO human PD-1 cells; competitor: 1.57-Strep tagged protein; 0 days in mouse serum).
Method: (§2) For the epitope competition assay reagents were prepared in FMAT assay buffer. […] Plates were incubated for a minimum of 1.5 hours at room temperature then fluorescence measured in the FL2 (502 nm-537 nm) and FL5 (677-800 nm) channels on the Mirrorball plate reader (TTP) following excitation at 488 nm and 640 nm. Data was expressed as a % of the total binding control (i.e. % control) after subtraction of the background signal determined from the non-specific binding control wells.
(§3) Serum stability of VH and multivalent VH constructs was assessed by measurement of their activity following incubation for 0, 1, 4 or 7 days in mouse serum (Sigma M5905).

| Binder | IC50 (read off the curve) |
| --- | --- |
| B6 | ~0.9 nM |

Each binder was assayed against T3, Strep tagged recombinant human PD-1 (human, UniProt Q15116 25-170, limits assumed) (assay: SPR Biacore T200, strep-tagged PD-1 amine-coupled, single cycle kinetics).
T3 construct: the whole entry is named; also called strep tagged human PD-1; not shown: Strep tag
Method: Single cycle kinetics assays were used to study the interaction between human PD-1 with Humabody® on a Biacore T200 instrument (GE Healthcare). Strep tagged recombinant human PD-1 was amine coupled to one flow cell of a CM-5 chip to create a low density surface (14 RU) using standard Biacore reagents. For the reference flow cell, a blank immobilisation was carried out. A five-point, three-fold dilution series of each Humabody® was made with a top concentration of 25 nM. The binding kinetics were followed by flowing the Humabody® over the chip surface in HBS EP+ buffer at a flow rate of 30 μl/min. The contact time for each of the association steps was 180 seconds and the dissociation step was 3300 seconds. The data was fitted to a 1:1 binding model after double reference subtraction using the Biacore T200 Evaluation software.

T3 sequence (Q15116 25-170 limits assumed): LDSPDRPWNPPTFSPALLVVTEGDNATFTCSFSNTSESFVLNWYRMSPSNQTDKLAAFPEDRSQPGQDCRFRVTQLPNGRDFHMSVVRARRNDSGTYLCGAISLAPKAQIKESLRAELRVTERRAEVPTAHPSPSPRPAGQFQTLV

| Binder | Kd | koff | kon |
| --- | --- | --- | --- |
| B8 | 0.08 nM | 0.00012 s⁻¹ | 1.52e+06 M⁻¹ s⁻¹ |
| B15 | 0.0171 nM | 1.32e-05 s⁻¹ | 773000 M⁻¹ s⁻¹ |
| B16 | 0.0222 nM | 1.4e-05 s⁻¹ | 630000 M⁻¹ s⁻¹ |

These binders were tested against T1, human PD-1 expressed on cells (CHO …) (assay: FMAT 1.57 epitope competition assay on CHO human PD-1 cells; competitor: 1.57-Strep tagged protein; 1 day in mouse serum).
Method: as §2, §3

| Binder | IC50 (read off the curve) |
| --- | --- |
| B6 | ~0.8 nM |

What follows are binders tested against T2, recombinant human PD-1 Fc chimera (assay: HTRF inhibition; strep-tagged PD-L1 vs PD-1-Fc).
Method: All samples and reagents were prepared in HTRF assay buffer containing PBS, 0.1% (w/v) BSA and 0.4M Potassium Fluoride. […] Total binding controls containing periplasmic extract sample buffer and non-specific binding controls containing excess untagged competitor were set up on each plate for data normalisation. Time-resolved fluorescent emission at 620 nm and 665 nm was measured following excitation at 337 nm on the BMG PHERAstar plate reader. Data was expressed as a % of the total binding control (% control) after subtraction of the background signal determined from the non-specific binding control wells.

| Binder | IC50 |
| --- | --- |
| B10 | 13 nM |
| B11 | 2.66 nM |
| B12 | 17 nM |
| B13 | 0.913 nM |
| B14 | 3.13 nM |

Each binder was assayed against T1, human PD-1 expressed on cells (CHO …) (assay: FMAT inhibition; 200 pM PD-L2 on CHO human PD-1 cells).
Method: as §1

| Binder | IC50 |
| --- | --- |
| B2 | 10 nM |
| B3 | 8.5 nM |
| B4 | 6.9 nM |
| B6 | 9 nM |

These binders were tested against T2, recombinant human PD-1 Fc chimera (assay: SPR Biacore T200, PD-1-Fc captured on protein G, single cycle kinetics).
Method: Single cycle kinetics assays were used to study the interaction between human Fc tagged human PD-1 with Humabody® on a Biacore T200 instrument (GE Healthcare). Protein G was amine coupled to two flow cells of a CM-5 chip. Human Fc tagged recombinant human PD-1 was captured onto one of the flow cells. The other was used as the reference flow cell. A five point, three-fold dilution series of each Humabody® was made with a top concentration within the range of 50 to 150 nM. The binding kinetics were followed by flowing the Humabody® over the chip surface in HBS EP+ buffer at a flow rate of 30 μl/min. The contact time for each of the association steps was 180 seconds and the dissociation step was 3600 seconds. The data was fitted to a 1:1 binding model after double reference subtraction using the Biacore T200 Evaluation software.

| Binder | dissociation rate constant (koff) | koff | kon |
| --- | --- | --- | --- |
| B16 | 8.4e-05 s⁻¹ | 1.14e-07 s⁻¹ | 1.36e+06 M⁻¹ s⁻¹ |

The binders below were run against T1, human PD-1 expressed on cells (CHO …) (assay: FMAT epitope competition on CHO human PD-1 cells; competitor 1 nM 1.1-Strep).
Method: as §2

| Binder | IC50 |
| --- | --- |
| B1 | 1.4 nM |
| B7 | 1.5 nM |
| B8 | 1.6 nM |
| B5 | 1.1 nM |
| B9 | 1.7 nM |

Biological target: T1, human PD-1 expressed on cells (CHO …)
Assay: cell-based or functional assay
Remark: another data set of the same source

| Binder | EC50 (M), human PD-1 reporter gene assay |
| --- | --- |
| B15 | 8.4e-10 M |
| B16 | 1e-09 M |

Each binder was assayed against human PD-1 expressed on cells (CHO human PD-1 cells) (human) (UniProt Q15116) (assay: FMAT inhibition assay on CHO human PD-1 cells; blocked ligand: human Fc tagged human PD-L1).
Sequence of human PD-1 expressed on cells (CHO human PD-1 cells) (human) (Q15116 21-288): as the sequence (Q15116 21-288) above

| Binder | IC50 (read off the curve) |
| --- | --- |
| B17 | 0.9 nM |

Biological target: T1, human PD-1 expressed on cells (CHO …)
Assay: cell-based or functional assay
Remark: another data set of the same source

| Binder | EC50 (M), reporter assay |
| --- | --- |
| B15 | 8.4e-10 M |
| B16 | 1e-09 M |

Source: patent US20200239573A1 (CRESCENDO BIOLOGICS, published 2020)
